Source: the DeepSol protein solubility set

Assay: soluble on expression in E. coli; label from the status in PepcDB or PDB records

Row | Sequence | soluble on expression in E. coli
1 | MKEFYLTVEQIGDSIFERYIDSNGRERTREVEYKPSLFAHCPESQATKYFDIYGKPCTRKLFANMRDASQWIKRMEDIGLEALGMDDFKLAYLSDTYNYEIKYDHTKIRVANFDIEVTSPDGFPEPSQAKHPIDAITHYDSIDDRFYVFDLLNSPYGNVEEWSIEIAAKLQEQGGDEVPSEIIDKIIYMPFDNEKELLMEYLNFWQQKTPVILTGWNVESFDIPYVYNRIKNIFGESTAKRLSPHRKTRVKVIENMYGSREIITLFGISVLDYIDLYKKFSFTNQPSYSLDYISEFELNVGKLKYDGPISKLRESNHQRYISYNIIDVYRVLQIDAKRQFINLSLDMGYYAKIQIQSVFSPIKTWDAIIFNSLKEQNKVIPQGRSHPVQPYPGAFVKEPIPNRYKYVMSFDLTSLYPSIIRQVNISPETIAGTFKVAPLHDYINAVAERPSDVYSCSPNGMMYYKDRDGVVPTEITKVFNQRKEHKGYMLAAQRNGEIIKEALHNPNLSVDEPLDVDYRFDFSDEIKEKIKKLSAKSLNEMLFRAQRTEVAGMTAQINRKALINGLAGALGNVWFRYYDLRNATAITTFGQMALQWIERKVNEYLNEVCGTEGEAFVLYGDTDSIYVSADKIIDKVGESKFRDTNHWVDFLDKFARERMEPAIDRGFREMCEYMNNKQHLMFMDREAIAGPPLGSKGIGGFWTGKKRYALNVWDMEGTRYAEPKLKIMGLETQKSSTPKAVQKALKECIRRMLQEGEESLQEYFKEFEKEFRQLNYISIASVSSANNIAKYDVGGFPGPKCPFHIRGILTYNRAIKGNIDAPQVVEGEKVYVLPLREGNPFGDKCIAWPSGTEITDLIKDDVLHWMDYTVLLEKTFIKPLEGFTSAAKLDYEKKASLFDMFDFHHHHHH | soluble
2 | MSLSGEPYNFEYTFSKSHDIGVSLTIGKRNYMEDEVLIAGNIKEGIDLVGIFDGHNGSDAAKLAAKLFKEEIKHLEEEFDWITLFEKVHSTIIKSTESGTTATLALIYSNKITLVHCGDSTAFALKKRKLKKLTHDQNTSSLEEVSSIKKNGGVVEFNGGILRVNGQISVTRSLGDKKFHPPLTCIPEVIELESDDITSLVLTSDGISSVLQLDEIEAVMNSEMNVEEKSSTLRNQSFIREGKDNMSVIVVSFNEGHHHHHH | soluble
3 | MGSDKIHHHHHHVRACCGDQRAMSATDHGLPAIAELTDKELEVLRLLTAGHTIKSIAALLDRSEASINERLRDARRKTGVGSSRELARLVAGQENWPRKTDLSTPAVSGDADGQPALAARHWPKGTIAMFTLLPLAAGLMLVSAASQQADGPQSSHAAAAIASPLVGKWSLDTSRIPADERPRSVMIAFSVSPDQQWSTQVDIVAPDGSKMTATSTARADGVAVPISGNIPIFDTASLRQPAPNTLVMTLGKSGTPVATRVYTVARDGNSMTETIVWADKTMPKMETTYFNRVG | not soluble
4 | MGSDKIHHHHHHMKKSTLIDKFLDLLSSRSSLREIQNNFIDANIMRDSSINQKYNGQRKSLAWEYISTLNLEDEAEFSKLLNVIETYLFQWNLYIHEVDEDEEINRLIKIINVLGYEYNKDTGKITKNEREVNLSTIKSLAIKFDIEYVLKECNRIEKEALTDPEDAITSAKSMVESTLKHILDSEGEKFNNNETLRGLYKKVSNIMNLSPGGHNENTFKTILSGMINVINGLDEVRNEYGDAHGKSKKNYRPETRHAFLAINAARTITEFLLASYKK | not soluble
5 | MKTFTVQFHREDDVEAMNVGKLSQEDFDKATEGGTRHLFDLDTNIGYFVFFDAEDNEGKVSYLMLQYEEDNEDPSACYSFELKDFYEFMALYLNDLEFAEEEEMAEDGEEEYGPIHHLAHLLYHIVEKGKTVEV | not soluble
6 | MGSDKIHHHHHHMNLPTAHPLIDEATLTIVVCHILDSKTATLGEWHSEAIAHHIINNVTAGLQRITGIANNGSEQLSWSVILKILHLQPENAGSIFNSSQDPTHWNYWQREALIYTSGMLDNLTGDLVAPRCFGITEPSANVVWLWLEDIQGSSGSTWTMERFGLAARHLGYLQGSYVMAQSLPYEPWLSRGWHRAWVSNIDNTALEAWREPAVWQHPLLKEIFSPDIGDRVMDLWSDRHILLDAVDKAPHTLCHFDITPNNLFSRHNPDGNDQTVLIDWSFVGYGVLGEDIINLVLDSVFLLFVNGSSLIPLEKLVLEGYLTGLRSAGWNGDERIVRFTYAALAALHFGLIAGRLLKLVQNESRHSWLEQRFGRTFDEIITSRAIAITHGLELADEARLLLPSLFVIN | not soluble
